The target in series [1] is full-length AdeR (AdeR_FL), response regulator of Acinetobacter baumannii (Acinetobacter baumannii ATCC19606). Briefly: SEC. (In gel filtration, larger molecules generally elute earlier.)
Series [2] deals with AdeR receiver domain with linker sequence (AdeR_RD, 1-137) (Acinetobacter baumannii ATCC19606). Briefly: SEC.
In a further series the target is T1, AdeR_FL R205A/R215A (Acinetobacter baumannii ATCC19606, UniProt E1A0Z5 1-247, R205A;R215A).
T1 sequence: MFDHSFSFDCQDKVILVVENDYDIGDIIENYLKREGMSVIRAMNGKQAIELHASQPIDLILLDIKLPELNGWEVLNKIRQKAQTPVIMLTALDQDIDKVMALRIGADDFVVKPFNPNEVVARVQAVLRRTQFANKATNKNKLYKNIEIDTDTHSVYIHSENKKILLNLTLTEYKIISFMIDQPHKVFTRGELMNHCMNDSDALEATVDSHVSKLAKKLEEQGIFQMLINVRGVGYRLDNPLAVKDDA
Briefly: ITC. Background: In ITC the heat of successive injections is recorded.

The next series addresses T2, AdeR_FL R122A (Acinetobacter baumannii ATCC19606, UniProt E1A0Z5 1-247, R122A).
T2 sequence: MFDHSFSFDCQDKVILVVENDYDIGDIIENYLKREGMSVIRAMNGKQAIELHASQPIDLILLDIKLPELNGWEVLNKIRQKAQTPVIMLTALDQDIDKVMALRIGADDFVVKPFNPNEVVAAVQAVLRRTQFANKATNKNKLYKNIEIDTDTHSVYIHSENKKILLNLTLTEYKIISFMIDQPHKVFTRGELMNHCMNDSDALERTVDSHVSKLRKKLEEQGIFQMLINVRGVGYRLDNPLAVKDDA
Briefly: ITC.

The target of the next series is T3, AdeR_FL D63E (Acinetobacter baumannii ATCC19606, UniProt E1A0Z5 1-247, D63E).
T3 sequence: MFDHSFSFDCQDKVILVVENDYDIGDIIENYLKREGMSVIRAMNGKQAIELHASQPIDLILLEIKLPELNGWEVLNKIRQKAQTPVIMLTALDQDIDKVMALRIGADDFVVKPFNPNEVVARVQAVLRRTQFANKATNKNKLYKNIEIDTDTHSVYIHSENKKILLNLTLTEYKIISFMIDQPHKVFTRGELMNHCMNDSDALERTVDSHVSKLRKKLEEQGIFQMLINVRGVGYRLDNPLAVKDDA
Briefly: ITC.

For series [3], the target named is T4, AdeR_FL R231A (Acinetobacter baumannii ATCC19606, UniProt E1A0Z5 1-247, R231A).
T4 sequence: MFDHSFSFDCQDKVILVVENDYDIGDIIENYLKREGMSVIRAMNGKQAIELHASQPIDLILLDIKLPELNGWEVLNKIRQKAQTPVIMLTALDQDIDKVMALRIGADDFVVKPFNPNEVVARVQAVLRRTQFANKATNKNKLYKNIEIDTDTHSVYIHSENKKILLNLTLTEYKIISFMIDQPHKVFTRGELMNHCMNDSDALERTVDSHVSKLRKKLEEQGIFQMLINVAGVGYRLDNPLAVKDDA
Briefly: ITC.

In another series the target is T5, AdeR_DBD (Acinetobacter baumannii ATCC19606, UniProt E1A0Z5 138-247).
T5 sequence: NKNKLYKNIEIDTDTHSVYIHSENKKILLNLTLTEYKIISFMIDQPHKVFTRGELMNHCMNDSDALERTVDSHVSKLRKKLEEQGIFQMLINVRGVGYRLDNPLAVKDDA
Briefly: ITC.

In another series the target is T6, AdeR_FL (Acinetobacter baumannii ATCC19606, UniProt E1A0Z5 1-247).
T6 sequence: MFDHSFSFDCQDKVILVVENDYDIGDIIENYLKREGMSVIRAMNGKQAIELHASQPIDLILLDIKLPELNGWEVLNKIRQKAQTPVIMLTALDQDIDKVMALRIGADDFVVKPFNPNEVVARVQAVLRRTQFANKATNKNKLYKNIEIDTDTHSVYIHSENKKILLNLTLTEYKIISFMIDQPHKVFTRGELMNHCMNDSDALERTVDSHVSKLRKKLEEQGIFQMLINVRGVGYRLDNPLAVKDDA
Briefly: ITC.

Series [4] addresses T4, AdeR_FL R231A. Briefly: EMSA. A general note: In EMSA bound probe runs differently from free probe, usually more slowly.

For the molecule “full-length AdeR (AdeR_FL), response regulator of Acinetobacter baumannii (natural protein)”, in series [1], the stoichiometry N (as a rule, a count of units in the complex or per binding partner) came to 2.
On to “AdeR receiver domain with linker sequence (AdeR_RD, 1-137) (domain or fragment)”, for which, in [2], the stoichiometry N was 2.

B1: 25 bp intercistronic DNA (dsDNA)
DNA 1: TAAAGTGTGGAGTAAGTGTGGAGAA
DNA 2: TTCTCCACACTTACTCCACACTTTA
On to B1, for which the binding result was “no binding” with AdeR_FL R205A/R215A, “binds” with AdeR_FL D63E and “no binding” in the series with AdeR_FL R231A [3]. Further, the equilibrium dissociation constant (Kd) (usually a measure of binding affinity in units of concentration) with AdeR_FL R122A is 1000 nM; with AdeR_DBD, 2200 nM; in the series with AdeR_FL, 20 nM.

B2: biotin 25 bp intercistronic DNA (dsDNA)
DNA 1: TAAAGTGTGGAGTAAGTGTGGAGAA
DNA 2: TTCTCCACACTTACTCCACACTTTA
Turning to B2, the binding result in the series with AdeR_FL R231A [4] is reported as “no binding”.
